Assay results: a protein production outcome set (Wang et al. 2014)

Experiment: label from the status in PepcDB records

Sequence | protein production
MLTLILAQVTTLDPARPQAEAVLAGGGRVLAVGTREELSALAPRAEVLDHRDLHLTPGLCDAHTHLVMYGASLSQLDVQGVRSVDEVRARLRERAAQTPAGEWIVGGGFLLSELGLSGYPTAADLDAVSPDHPVLLHSRDHHMIWVNSRALAAAGIHDQTPDPEGGHIVHPLGCLQENAQALVSERVPAPSESEWLAHARAGAQDLAARGYVSTHTMAFEDAAAPLALQTLAARGELPLRVWACLPHERLSAARSLGLSRVPGGLFQWGGVKFFADGALGSRTAWLHAPGFADGSGTGIALDSPDLILERGREALRLGLTPVTHAIGDRANTEVLDVYEQLRPEAEARGIRLRVEHAQHLRPEDLPRFRGLTASVQPVHLPADAAMIRELLPQREQTSYAFRSLKDAGAILAFGSDAPVAPPSVQGNFAAAVSRLGDDGLPLAPAEALTPDDVLWAYTRGPALAAGWDDEGWVKPGARAAFTLWNTIGGEARSLVL | failed
MNVDARVGVAVDGAQSALNTATTVHSSVVMTQIKPQAKLGTFQNLLAGGIAGAISKTCTAPLARLTILFQLQGMQSEGAVLSRPNLRREASRIINEEGYRAFWKGNLVTVVHRIPYTAVNFYAYEKYNLFFNSNPVVQSFIGNTSGNPIVHFVSGGLAGITAATATYPLDLVRTRLAAQRNAIYYQGIEHTFRTICREEGILGLYKGLGATLLGVGPSLAINFAAYESMKLFWHSHRPNDSDLVVSLVSGGLAGAVSSTDDKLFDAHNYVATYPLDLVRRRMQVEGAGGRARVYNTGLFGTFKHIFKSEGFKGIYRGILPEYYKVVPGVGIVFMTYDALRRLLTSLPD | failed
MSRKRSTKPKPAAKIALKKENDQFLEALKLYEGKQYKKSLKLLDAILKKDGSHVDSLALKGLDLYSVGEKDDAASYVANAIRKIEGASASPICCHVLGIYMRNTKEYKESIKWFTAALNNGSTNKQIYRDLATLQSQIGDFKNALVSRKKYWEAFLGYRANWTSLAVAQDVNGERQQAINTLSQFEKLAEGKISDSEKYEHSECLMYKNDIMYKAASDNQDKLQNVLKHLNDIEPCVFDKFGLLERKATIYMKLGQLKDASIVYRTLIKRNPDNFKYYKLLEVSLGIQGDNKLKKALYGKLEQFYPRCEPPKFIPLTFLQDKEELSKKLREYVLPQLERGVPATFSNVKPLYQRRKSKVSPLLEKIVLDYLSGLDPTQDPIPFIWTNYYLSQHFLFLKDFPKAQEYIDAALDHTPTLVEFYILKARILKHLGLMDTAAGILEEGRQLDLQDRFINCKTVKYFLRANNIDKAVEVASLFTKNDDSVNGIKDLHLVEASWFIVEQAEAYYRLYLDRKKKLDDLASLKKEVESDKSEQIANDIKENQWLVRKYKGLALKRFNAIPKFYKQFEDDQLDFHSYCMRKGTPRAYLEMLEWGKALYTKPMYVRAMKEASKLYFQMHDDRLKRKSDSLDENSDEIQNNGQNSSSQKKKAKKEAAAMNKRKETEAKSVAAYPSDQDNDVFGEKLIETSTPMEDFATEFYNNYSMQVREDERDYILDFEFNYRIGKLALCFASLNKFAKRFGTTSGLFGSMAIVLLHATRNDTPFDPILKKVVTKSLEKEYSENFPLNEISNNSFDWLNFYQEKFGKNDINGLLFLYRYRDDVPIGSSNLKEMIISSLSPLEPHSQNEILQYYL | failed
MSTDEERIYSIALTQIPGVGHIGAKRLVDGMGSATDVFRYRTELPDRLPGVNRAVVAALDSPQALKRAEQEYEFARNNRISCFTLADEDYPSRLRECDDAPVVLFFKGKANLNALHIINMVGTRNATDYGKHICVSFLQELQMLCPDVLVVSGLAYGIDINAHRSALSVELPTVGVLAHGLDRIYPSLHRKTAIDMLRQGGLLTEFLSGTNPDKHNFISRNRIVAGISDATIVVESAAKGGSLITADIAGSYHRDCFAFPGRVTDEYSKGCNQLIQDNKAVLLESASDFVKTMGWDSDLKSVKPETVQRNLFPDLSAEELRIVDILGKLGDLQINALMVQADIPINKISAILFELEMKGVIRVLAGGVYQLLR | failed
MTPHATPAPRVSAIVSLYNAERFVRGCLDDLLGQTLADSLEIIVIDACSPQGEGAIVQDYMRDHPNIVYVRTDEREGVYASWNRGVRLARAPYVTNANADDRHREDALERLAAALDEAPEAGFAYGDCRVGQTENERYADNAGQRVMRFPDFFAPATLLYCQLGPQPLWRRSVHDVVGFFDESYRACADWDFDIRLAAAFRGIHVPDALGLYLEHEAAITFRDDTMTRENDRVQRQWQHPEAVEERYRAAGVPCHTAEERALVHFDMALRALRFYPPWCYGAPAHNPGFARRCLRHALRLAPALAPAKELLALPDAVLTALDDLPSPLGLPSQATLAGVAAPLEHHHHHH | failed
